The values below are quoted from earlier work in article PMC8315802.

Data set [1] concerns the target actin filament (Oryctolagus cuniculus) (UniProt P68135).
The target is the same in data set [2]. The source holds these as a separate data set.
Data set [3] shares this target. This is another data set of the same source.

Like-named read-outs stand apart in the source and are kept apart here.

By Kd is commonly meant the free concentration of one partner at which half of the binding sites on the other are occupied at equilibrium, for simple one-to-one binding. With Rng2 1-189 (from UniProt O14188), in data set [1], the Kd is 900 nM.

Regarding utrophin CHD (from UniProt P46939), the equilibrium dissociation constant (Kd) in data set [2] is 1500 nM. With α-actinin CHD (from UniProt P05094), in data set [3], the dissociation constant Kd is 4700 nM.
